Publication PMC4312047
Several values for one entry are separate records, joined by “and”; a condition that tells them apart may be missing. Equal values may be shown once.

How the values were obtained:
[1] = target: PHB domain of B. subtilis YuaG (FloT) (Bacillus subtilis); assay: native gel or EMSA; blue native PAGE of the isolated PHB domain, according to Wittig et al.
[2] = target: PHB domain of B. subtilis YuaG (FloT) (Bacillus subtilis); assay: SDS-PAGE (SDS-resistant oligomers); purified PHB domain without cross-linking on denaturing SDS-PAGE; colloidal Coomassie blue staining or anti-His immunoblot
[3] = target: PHB domain of B. subtilis YuaG (FloT) (Bacillus subtilis); assay: SEC; Superose 6 10/300 GL, buffer A (50 mM TrisHCl pH 7.5, 150 mM NaCl, 5 mM MgCl2), RT; column calibrated with the BIO-RAD Gel Filtration Standard; fractions checked by SDS-PAGE and anti-His immunoblot

For “PHB domain of B. subtilis YuaG (FloT) (domain or fragment)”, the stoichiometry N [1] was 14, the stoichiometry N [2] was 4 and 8 and the stoichiometry N [3] was 14.8.
